Laboratory results from patent US20190276511A1 (BIONTECH RNA PHARMACEUTICALS, published 2019).

Tests used:
[1] = target: T1, OX40-Fc (human, UniProt P43489 29-214); assay: ELISA, coated receptor-Fc
T1 construct: extracellular domain; hinge included for covalent assembly; also called OX40 receptor-Fc fusion protein; not shown: human Fc gamma 1 region including the hinge region
T1 sequence (looked up): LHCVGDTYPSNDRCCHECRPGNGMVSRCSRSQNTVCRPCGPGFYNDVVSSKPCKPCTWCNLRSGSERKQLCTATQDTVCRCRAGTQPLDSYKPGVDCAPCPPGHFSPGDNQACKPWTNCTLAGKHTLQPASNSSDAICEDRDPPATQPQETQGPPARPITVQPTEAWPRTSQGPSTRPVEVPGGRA
Procedure: (§1) Receptor binding of the Duokines was analyzed by ELISA using fusion proteins of the extracellular region of CD40, CD27, 4-1BB and OX40, respectively, with the human Fcγ1 region including the hinge region for covalent assembly (CD40-Fc, CD27-Fc, 4-1BB-Fc, OX40-Fc). Receptor-Fc fusion proteins (200 ng/well) were coated overnight at 4° C. and remaining binding sites were blocked with PBS, 2% skimmed milk powder (2% MPBS).

[2] = target: T2, CD40-Fc (human, UniProt P25942 21-193); assay: ELISA, coated receptor-Fc
T2 construct: extracellular domain; hinge included for covalent assembly; also called CD40 receptor-Fc fusion protein; not shown: human Fc gamma 1 region including the hinge region
T2 sequence (P25942 21-193 limits assumed): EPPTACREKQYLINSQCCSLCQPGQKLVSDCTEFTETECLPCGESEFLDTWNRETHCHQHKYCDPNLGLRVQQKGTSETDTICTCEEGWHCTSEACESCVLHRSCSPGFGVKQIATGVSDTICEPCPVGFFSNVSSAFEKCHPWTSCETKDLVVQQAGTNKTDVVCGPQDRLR
Procedure: as §1

[3] = target: CD40 receptor on cells (human, UniProt P25942 21-277); assay: cell-based or functional assay
CD40 receptor on cells, sequence (P25942 21-277): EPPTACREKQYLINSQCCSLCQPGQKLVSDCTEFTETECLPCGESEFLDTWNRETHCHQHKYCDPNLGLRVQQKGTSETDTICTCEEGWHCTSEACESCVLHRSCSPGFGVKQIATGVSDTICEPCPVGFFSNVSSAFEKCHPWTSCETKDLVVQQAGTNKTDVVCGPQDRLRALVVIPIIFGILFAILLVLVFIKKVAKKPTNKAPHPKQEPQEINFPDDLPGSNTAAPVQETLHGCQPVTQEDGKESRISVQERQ

[4] = target: T3, OX40 receptor on cells (human, UniProt P43489 29-277); assay: cell-based or functional assay
T3 sequence (looked up): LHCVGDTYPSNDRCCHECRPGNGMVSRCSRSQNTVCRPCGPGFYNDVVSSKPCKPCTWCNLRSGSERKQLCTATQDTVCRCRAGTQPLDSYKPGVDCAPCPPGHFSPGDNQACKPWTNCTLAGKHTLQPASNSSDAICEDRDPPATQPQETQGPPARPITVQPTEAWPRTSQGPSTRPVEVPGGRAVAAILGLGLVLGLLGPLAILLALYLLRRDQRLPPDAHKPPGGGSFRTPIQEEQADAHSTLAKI

[5] = target: T4, 4-1BB-Fc (human, UniProt Q07011 24-186); assay: ELISA, coated receptor-Fc
T4 construct: extracellular domain; hinge included for covalent assembly; also called 4-1BB receptor-Fc fusion protein; not shown: human Fc gamma 1 region including the hinge region

[6] = target: T5, CD27-Fc (human, UniProt P26842 20-191); assay: ELISA, coated receptor-Fc
T5 construct: extracellular domain; hinge included for covalent assembly; also called CD27 receptor-Fc fusion protein; not shown: human Fc gamma 1 region including the hinge region
T5 sequence (looked up): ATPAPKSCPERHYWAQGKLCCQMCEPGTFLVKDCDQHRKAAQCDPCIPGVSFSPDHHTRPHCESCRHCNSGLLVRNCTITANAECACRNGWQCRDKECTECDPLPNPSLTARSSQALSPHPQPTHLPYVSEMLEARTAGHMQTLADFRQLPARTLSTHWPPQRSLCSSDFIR

[7] = target: T5, CD27-Fc; assay: ELISA, coated receptor-Fc; remark: listed apart in the source
Procedure: as §1

[8] = target: T2, CD40-Fc; assay: ELISA, coated receptor-Fc; remark: listed apart in the source

B1: CD40L-OX40L (ligand)
chain: GDQNPQIAAHVISEASSKTTSVLQWAEKGYYTMSNNLVTLENGKQLTVKRQGLYYIYAQVTFCSNREASSQAPFIASLCLKSPGRFERILLRAANTHSSAKPCGQQSIHLGGVFELQPGASVFVNVTDPSQVSHGTGFTSFGLLKLGGGGSGGGGSGGGGSQVSHRYPRIQSIKVQFTEYKKEKGFILTSQKEDEIMKVQNNSVIINCDGFYLISLKGYFSQEVNISLHYQKDEEPLFQLKKVRSVNSLMVASLTYKDKVYLNVTTDNTSLDDFHVNGGELILIHQNPGEFCVL
notes: Duokine from HEK293, FLAG-purified; VH leader left out; homotrimer by SEC; also called Duokine CD40L-OX40L; not shown: N-terminal FLAG tag
[1]
  EC50: 0.51 nM
[2]
  EC50: 2.18 nM
[3]
  Receptor activation (EC50, nM): 16.6 nM
[4]
  Receptor activation (EC50, nM): 0.7 nM
[5]
  binding result: no binding (tested: 100 nM (FIG. 4))
[6]
  binding result: no binding (tested: 100 nM (FIG. 4))

B2: OX40L-CD40L (ligand)
chain: QVSHRYPRIQSIKVQFTEYKKEKGFILTSQKEDEIMKVQNNSVIINCDGFYLISLKGYFSQEVNISLHYQKDEEPLFQLKKVRSVNSLMVASLTYKDKVYLNVTTDNTSLDDFHVNGGELILIHQNPGEFCVLGGGGSGGGGSGGGGSGDQNPQIAAHVISEASSKTTSVLQWAEKGYYTMSNNLVTLENGKQLTVKRQGLYYIYAQVTFCSNREASSQAPFIASLCLKSPGRFERILLRAANTHSSAKPCGQQSIHLGGVFELQPGASVFVNVTDPSQVSHGTGFTSFGLLKL
notes: Duokine from HEK293, FLAG-purified; VH leader left out; homotrimer by SEC; also called Duokine OX40L-CD40L; not shown: N-terminal FLAG tag
[1]
  EC50: 1.01 nM
[2]
  EC50: 1.45 nM
[3]
  Receptor activation (EC50, nM): 3.86 nM
[4]
  Receptor activation (EC50, nM): 0.73 nM
[5]
  binding result: no binding (tested: 100 nM (FIG. 4))
[6]
  binding result: no binding (tested: 100 nM (FIG. 4))

B3: CD27L-OX40L (ligand)
chain: SLGWDVAELQLNHTGPQQDPRLYWQGGPALGRSFLHGPELDKGQLRIHRDGIYMVHIQVTLAICSSTTASRHHPTTLAVGICSPASRSISLLRLSFHQGCTIASQRLTPLARGDTLCTNLTGTLLPSRNTDETFFGVQWVRPGGGGSGGGGSGGGGSQVSHRYPRIQSIKVQFTEYKKEKGFILTSQKEDEIMKVQNNSVIINCDGFYLISLKGYFSQEVNISLHYQKDEEPLFQLKKVRSVNSLMVASLTYKDKVYLNVTTDNTSLDDFHVNGGELILIHQNPGEFCVL
notes: Duokine from HEK293, FLAG-purified; VH leader left out; homotrimer by SEC; also called Duokine CD27L-OX40L; not shown: N-terminal FLAG tag
[7]
  EC50: 6.74 nM
[1]
  EC50: 3.16 nM
[4]
  Receptor activation (EC50, nM): 10.2 nM
[5]
  binding result: no binding (tested: 100 nM (FIG. 4))
[8]
  binding result: no binding (tested: 100 nM (FIG. 4))
